# Test results published in article PMC5042576.
# Target: Actin filaments decorated with Tpm3.1 (chicken | human) (UniProt P68139)
# Chain of Mouse melanophilin with N-terminal SNAP tag and C-terminal Flag tag (Q91V27 whole entry): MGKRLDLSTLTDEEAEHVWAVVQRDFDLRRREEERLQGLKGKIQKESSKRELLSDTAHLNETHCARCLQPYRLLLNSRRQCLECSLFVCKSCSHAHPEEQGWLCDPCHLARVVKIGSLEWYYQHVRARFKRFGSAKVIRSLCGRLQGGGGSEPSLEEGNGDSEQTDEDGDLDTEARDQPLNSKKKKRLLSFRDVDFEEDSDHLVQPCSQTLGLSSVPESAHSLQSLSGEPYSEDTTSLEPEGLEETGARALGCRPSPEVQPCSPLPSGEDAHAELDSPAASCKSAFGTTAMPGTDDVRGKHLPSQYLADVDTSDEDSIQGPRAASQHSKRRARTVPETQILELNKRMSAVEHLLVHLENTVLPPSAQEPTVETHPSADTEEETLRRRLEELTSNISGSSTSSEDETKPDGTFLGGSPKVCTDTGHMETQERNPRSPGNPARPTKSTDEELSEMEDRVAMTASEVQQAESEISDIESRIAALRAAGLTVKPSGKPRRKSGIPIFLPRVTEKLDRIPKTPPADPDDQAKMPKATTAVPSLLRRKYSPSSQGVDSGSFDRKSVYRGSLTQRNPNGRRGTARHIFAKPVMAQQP
substance,measurement,value
Mouse melanophilin with N-terminal SNAP tag and C-terminal Flag tag (from UniProt Q91V27 1-590) (natural protein),fold affinity against actin–Tpm1.8 and actin–Tpm4.2,2 fold
